Biological target: T1, FLAG-IFNAR2 (human, UniProt P48551 27-515)
T1 sequence: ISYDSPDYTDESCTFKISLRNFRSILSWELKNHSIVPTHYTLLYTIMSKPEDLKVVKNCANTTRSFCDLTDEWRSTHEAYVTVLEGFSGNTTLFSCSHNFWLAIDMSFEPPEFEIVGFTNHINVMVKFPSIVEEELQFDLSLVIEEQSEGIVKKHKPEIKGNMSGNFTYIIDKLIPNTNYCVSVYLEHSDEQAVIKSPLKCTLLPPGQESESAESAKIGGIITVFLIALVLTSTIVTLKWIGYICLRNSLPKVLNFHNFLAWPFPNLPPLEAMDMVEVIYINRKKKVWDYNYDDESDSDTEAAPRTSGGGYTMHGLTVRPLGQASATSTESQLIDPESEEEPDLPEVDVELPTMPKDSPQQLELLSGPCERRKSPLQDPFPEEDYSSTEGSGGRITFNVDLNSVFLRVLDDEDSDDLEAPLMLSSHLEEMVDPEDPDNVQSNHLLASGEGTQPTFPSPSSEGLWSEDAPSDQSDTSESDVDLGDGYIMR
Experiment: co-IP

B1: USP18 (no tag named), expressed in U6A cells (enzyme)
chain: MSKAFGLLRQICQSILAESSQSPADLEEKKEEDSNMKREQPRERPRAWDYPHGLVGLHNIGQTCCLNSLIQVFVMNVDFTRILKRITVPRGADEQRRSVPFQMLLLLEKMQDSRQKAVRPLELAYCLQKCNVPLFVQHDAAQLYLKLWNLIKDQITDVHLVERLQALYTIRVKDSLICVDCAMESSRNSSMLTLPLSLFDVDSKPLKTLEDALHCFFQPRELSSKSKCFCENCGKKTRGKQVLKLTHLPQTLTIHLMRFSIRNSQTRKICHSLYFPQSLDFSQILPMKRESCDAEEQSGGQYELFAVIAHVGMADSGHYCVYIRNAVDGKWFCFNDSNICLVSWEDIQCTYGNPNYHWQETAYLLVYMKMEC
- fold enhancement of the co-precipitation upon expression of STAT2: ≤ 10 fold

Reference: paper PMC5365074 (Nature structural & molecular biology, 2017)
